Results on four molecules are retold here after publication PMC8502153, “Two adjacent C-terminal mutations enable expression of aryl-alcohol oxidase from Pleurotus eryngii in Pichia pastoris” (Applied Microbiology and Biotechnology, 2021).

The target of data set [1] is T1, PeAAO1 (Pleurotus eryngii, UniProt O94219, K583E/Q584R).
T1 construct: gene aao; secreted glycoprotein from P. pastoris X-33 (codon-optimised gene in pPICZA); signal peptide removed; theoretical 61 kDa, about 100 kDa on SDS-PAGE, 70 kDa deglycosylated; only mutants expressed (ER, NER, AER)
Briefly: flavin absorption spectrum; FAD released on heat denaturation. It is filed as binding. Particulars: non-covalently bound; absorbance maxima 463 and 383 nm.

Data set [2] addresses T2, PeAAO1 (Pleurotus eryngii, UniProt O94219, V367A/K583E/Q584R).
T2 construct: gene aao; secreted glycoprotein from P. pastoris X-33 (codon-optimised gene in pPICZA); signal peptide removed; theoretical 61 kDa, about 100 kDa on SDS-PAGE, 70 kDa deglycosylated; only mutants expressed (ER, NER, AER)
The description is as above. It counts as binding. The settings on record: non-covalently bound; absorbance maxima 463 and 383 nm.

Data set [3] concerns the target T3, PeAAO1 (Pleurotus eryngii, UniProt O94219, D361N/K583E/Q584R).
T3 construct: gene aao; secreted glycoprotein from P. pastoris X-33 (codon-optimised gene in pPICZA); signal peptide removed; theoretical 61 kDa, about 100 kDa on SDS-PAGE, 70 kDa deglycosylated; only mutants expressed (ER, NER, AER)
The data set is described as above. It is filed as binding. The settings on record: non-covalently bound; absorbance maxima 463 and 383 nm.

Substrate in the data set “purified protein”: COc1ccc(CO)cc1OC
Kind of data set: purified protein. It is filed as biochemical, Pleurotus eryngii. Particulars: 100 mM sodium phosphate pH 6, 25 °C, O2 as co-substrate, glycosylated enzyme.

Where a chain is given by its changes, count along the chain named. Numbers in names are those of the source.

Regarding `Cc1cc2nc3c(=O)[nH]c(=O)nc-3n(C[C@H](O)[C@H](O)[C@H](O)COP(=O)(O)OP(=O)(O)OC[C@H]3O[C@@H](n4cnc5c(N)ncnc54)[C@H](O)[C@@H]3O)c2cc1C` [FAD], the “flavin absorption spectrum; FAD released on heat denaturation” value at PeAAO1 [1], at PeAAO1 [2] and at PeAAO1 [3] was “calculated based on absorbance of the released FAD after heat precipitation of the apoprotein” throughout.

B1: PeAAO1 (Pleurotus eryngii; K583E/Q584R) (protein)
chain: ADFDYVVVGAGNAGNVVAARLTEDPDVSVLVLEAGVSDENVLGAEAPLLAPGLVPNSIFDWNYTTTAQAGYNGRSIAYPRGRMLGGSSSVHYMVMMRGSTEDFDRYAAVTGDEGWNWDNIQQFVRKNEMVVPPADNHNTSGEFIPAVHGTNGSVSISLPGFPTPLDDRVLATTQEQSEEFFFNPDMGTGHPLGISWSIASVGNGQRSSSSTAYLRPAQSRPNLSVLINAQVTKLVNSGTTNGLPAFRCVEYAEQEGAPTTTVCAKKEVVLSAGSVGTPILLQLSGIGDENDLSSVGIDTIVNNPSVGRNLSDHLLLPAAFFVNSNQTFDNIFRDSSEFNVDLDQWTNTRTGPLTALIANHLAWLRLPSNSSIFQTFPDPAAGPNSAHWETIFSNQWFHPAIPRPDTGSFMSVTNALISPVARGDIKLATSNPFDKPLINPQYLSTEFDIFTMIQAVKSNLRFLSGQAWADFVIRPFDPRLRDPTDDAAIESYIRDNANTIFHPVGTASMSPRGASWGVVDPDLKVKGVDGLRIVDGSILPFAPNAHTQGPIYLVGERGADLIKADQ
notes: secreted glycoprotein from P. pastoris X-33 (codon-optimised gene in pPICZA); signal peptide removed; theoretical 61 kDa, about 100 kDa on SDS-PAGE, 70 kDa deglycosylated; only mutants expressed (ER, NER, AER)
The Km is the concentration of substrate that gives half-maximal velocity. Usually kcat stands for the number of substrate molecules converted per active site and unit of time at saturation. By kcat/Km is commonly meant the second-order rate constant that governs catalysis at low substrate concentration. On to B1, for which, in “purified protein”, the Km is given as 549.0 ± 12.6 µM, the kcat was found to be 54.9 ± 0.02 s⁻¹ and the kcat/Km stood at 100000 M⁻¹ s⁻¹.

B2: PeAAO1 (Pleurotus eryngii; D361N/K583E/Q584R) (protein)
chain: B1 chain with D334N
notes: as for B1
Consider B2, for which, in “purified protein”, the Km is given as 546.7 ± 5.8 µM, the kcat stood at 68.2 ± 0.05 s⁻¹ and the kcat/Km is 125000 M⁻¹ s⁻¹.

B3: PeAAO1 (Pleurotus eryngii; K583E/Q584R/V367A) (protein)
chain: B1 chain with V340A
notes: as for B1
Turning to B3, in “purified protein”, the Km is 541.9 ± 6.4 µM, the kcat turned out to be 58.5 ± 0.03 s⁻¹ and the specificity constant (kcat/Km) was 108000 M⁻¹ s⁻¹.
